Data: the RNAGym collection of RNA variant scans (doi:10.7554/elife.90254)

B1: LINE1-full (parent)
chain: UACGUAGGUGGUUUUCCCCUGAUAGUGCUAAGGGGGCCUGGAAGUUUGGACUGGGCAGAGCUCAACACAGCGUGGCAAAGUGGCUGUGGCUAGACUGCCUCUCUGGAUUCCUCGUCACUCAGCAGGGCAUCUCUGAGAGAAAUGCC

Variants of: B1
Assay: self-cleavage, relative activity (ratio to wild type); higher = more cleavage; in vitro, sequencing; the parent is a self-cleaving ribozyme

Variant	self-cleavage
U104A U108A	1
A117C U130C	2.3
G53U U143C	1.14
U12G U47C	1.04
C66U A138U	0.03
A65G C111U	0.06
A31U U87A	0.14
A59U A79C	1.23
A64G A117U	0.26
G34A U102A	1.16
U15A U62C	0
C63U C123U	0.38
U112C U115C	1.29
U81C U112A	1.42
C16U U87A	0.05
G49A U102C	1.11
U15C C76A	1.2
U52A C145U	1.6
U73G A136G	1.84
G49U A65C	0.04
C71U U109A	0.41
U1C G4A	0.46
U119C G144A	1.26
A64G U119C	0.32

Variant	self-cleavage
G7U C16U	1.5
G40A U52C	1.23
U46C U115G	0
C101A A142G	1.53
U1A A78G	0.86
U29C C123U	1.21
A57G U85C	0.16
C110U A124G	0.82
G75A C123U	0.69
U15C U108C	1.99
U12C G36A	1.04
A43G A124C	1.96
G36A A79G	0.96
G58U U100G	0.2
C19U U112A	1.06
U62A A141U	0.01
C131G	1.54
U73A G122A	1.98
U1A U87A	0.13
A107U U130C	2.08
A31U U85G	0.15
U85C A117G	0.15
A117C A129U	1
U81C A121G	1.38

Variant	self-cleavage
U26A G34U	0.83
U20G U52A	1.36
A64U A138C	0.64
G10A A136U	0.95
A22C U96C	0.26
A30U U130C	1.05
U102C A136C	0.97
G58A U119C	0.06
U13C A50U	0.83
U14C A65U	0.19
A65C G105U	0.03
U12C U119G	1.5
A42C U119C	0
U15C A50C	2.42
U85A U130A	0.1
U12C A117U	1.28
A142C U143A	1.41
U9A A124U	1.2
G70A U91A	0.1
G105A U130C	0.96
U39A U45A	1.54
A77G C84U	0.25
U39C U87A	0.06
U13C C131A	1.28

Variant	self-cleavage
G34A U87G	0.2
U47C A57U	0.29
U14A A24U	0.77
A43G A50U	0.64
G4C U15C	1.18
A121G A129U	1.59
G33A G83A	0.92
U26G C111U	0.63
C66U U130C	0.05
A92C A129G	0
A43U U73A	0.93
U1A U9A	1.15
A24C G49A	0.82
A117U G135U	1.68
U12A U134A	0.6
U12A A142G	1.31
U73C C131U	1.73
U13A A50G	0.76
U14C G127A	1
G49A U134C	0.75
G105C U132C	1.53
U73A A140G	1.69
U112C	1.36
C37A A65G	0.01

Variant	self-cleavage
A50G A129C	0.75
A50G A129G	1.22
A67G G80A	0.79
U81C C90U	0.03
U81G A129G	1.48
A42C U73C	0.75
A92U A94U	0.32
U112C C120U	1.37
U9G U47A	0.99
G53U A65C	0.07
U102A A138G	1.62
A129G G144A	1.66
A79U G135C	2.76
A43G U134A	0.89
U81G	1.32
U26C U62A	0.02
U15C G35A	1.41
U9C A94U	0.21
A30U A69U	0.1
U134A A140U	0.85
C37G A141G	1.66
U47A C99U	0.3
C66U U96A	0.02
A31G U96A	0.11

Variant	self-cleavage
C101A A107G	1.57
A42U G55U	0.1
G32A G122A	2.13
G83U A117U	1.21
C28A U102A	1.12
A50U A141U	0.68
C103A U143C	1.1
G35C U143A	1.39
G83C	0.87
G7C A129U	1.17
G33A U46C	1.12
U115C A121U	2.06
A138U A141G	1.17
U13C G105A	1.33
A22C U143C	1.41
U26C U119C	1.77
A57U U85C	0.06
C133U A138G	1.32
A6U A121G	0.87
A59U U73A	0.94
U15A G114U	0.97
U23A U62C	0
U104A G106A	0.84
U85A A142C	0.14

Variant	self-cleavage
U12C G33C	1.28
U9A C16U	0.45
U13C A140G	1.23
U45A U112A	1.21
A24U U39C	1.47
G7A U143C	1.29
U46A A141U	1.01
A67G U130A	0.54
A69G A124G	0.32
G4A U81C	1.44
U13C C116U	0.7
U20C U130G	1.63
U39A U109C	1.1
A124C A142G	0.53
G32A U100C	1.34
U100A G125A	1.05
A64G G114U	0.24
U134G A136U	1.72
G11A G49U	1.35
A57U A142G	0.12
U39A C133U	1.41
A77U A129C	1.28
G53A G135U	0.82
